The source of these data is US20220340642A1 (Kyowa Kirin, published 2022).

Where a chain is given by its changes, count along the chain named. Names and notes keep the numbering of the source.

The labels stand for the following.
T1: membrane-bound human TL1A (Met and FLAG tag at the N-terminus) on CHO-K1 cells (human, UniProt O95150 2-251)
T1 construct: also called TL1A/CHO
T1 sequence: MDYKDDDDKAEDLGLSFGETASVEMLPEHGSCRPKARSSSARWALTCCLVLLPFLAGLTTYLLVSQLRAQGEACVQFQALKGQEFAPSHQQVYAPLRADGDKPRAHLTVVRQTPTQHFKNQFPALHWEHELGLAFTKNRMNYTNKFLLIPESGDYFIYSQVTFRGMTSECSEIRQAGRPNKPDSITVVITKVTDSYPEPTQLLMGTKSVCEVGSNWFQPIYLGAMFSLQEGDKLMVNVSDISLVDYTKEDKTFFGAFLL

T2: soluble recombinant of human TL1A (His6, GS linker, Leu72-Leu251) (human, UniProt O95150 72-251)
T2 construct: also called His6-TL1A; hTL1A
T2 sequence: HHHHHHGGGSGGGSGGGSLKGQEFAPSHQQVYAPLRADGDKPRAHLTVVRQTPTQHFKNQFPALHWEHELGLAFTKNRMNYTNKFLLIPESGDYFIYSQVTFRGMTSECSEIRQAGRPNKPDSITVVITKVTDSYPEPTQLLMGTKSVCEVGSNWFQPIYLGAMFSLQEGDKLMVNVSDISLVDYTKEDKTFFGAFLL

T3: soluble recombinant of cynomolgus monkey TL1A (His6, GS linker, Leu72-Leu251) (cynomolgus monkey)
T3 construct: also called His6-cynoTL1A
T3 chain: T2 sequence with F57L, I96V

T4: soluble recombinant of cynomolgus monkey FasL (His6, Pro133-Leu280) (cynomolgus monkey, UniProt P63308 133-280)
T4 construct: also called His6-cynoFasL
T4 sequence: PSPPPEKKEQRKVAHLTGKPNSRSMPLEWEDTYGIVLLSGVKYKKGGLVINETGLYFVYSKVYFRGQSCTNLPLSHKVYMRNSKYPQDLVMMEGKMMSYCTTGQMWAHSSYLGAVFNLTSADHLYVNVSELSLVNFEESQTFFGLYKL

B1: chimera A-E57K_R58D-Fc (Eg1S LALAGANA) (Fc fusion)
chain: ETFPPKYLHYDEETSHQLLCDKCPPGTYLKQHCTAKWKTVCAPCPPRHYTQFWNYLKDCRYCNVLCGEREEEARACHATHNRACRCRTGFFAHAGFCLEHASCPPGAGVIAPGTPSQNTQCQPCPDGFFSNETSSKAPCRKHTNCSVFGLLLTQKGNATHDNICSGNSESTQKEPKSSDKTHTCPPCPAPEAAGAPSVFLFPPKPKDTLMISRTPEVTCVVVDVSHEDPEVKFNWYVDGVEVHNAKTKPREEQYNSTYRVVSVLTVLHQDWLNGKEYKCKVSNKALPAPIEKTISKAKGQPREPQVYTLPPSRDELTKNQVSLTCLVKGFYPSDIAVEWESNGQPENNYKTTPPVLDSDGSFFLYSKLTVDKSRWQQGNVFSCSVMHEALHAHYTQKSLSLSPGK
B2: chimera A-E57K_R58E-Fc (Eg1S LALAGANA) (Fc fusion)
chain: B1 chain with D58E
B3: chimera A-E57R-Fc (Eg1S LALAGANA) (Fc fusion)
chain: B1 chain with K57R, D58R
B4: chimera A-Fc (Eg1S LALAGANA) (Fc fusion)
chain: B1 chain with K57E, D58R
B5: chimera A-Fc (Eg1S YTE) (Fc fusion)
chain: B1 chain with K57E, D58R, A192L, A193L, A195G, M210Y, S212T, T214E, A392N
B6: chimera A-E57V-Fc (Eg1S YTE) (Fc fusion)
chain: B1 chain with K57V, D58R, A192L, A193L, A195G, M210Y, S212T, T214E, A392N
B7: chimera A-E57K-Fc (Eg1S YTE) (Fc fusion)
chain: B1 chain with D58R, A192L, A193L, A195G, M210Y, S212T, T214E, A392N
B8: chimera A-E57K-Fc (Eg1S LALAGANA) (Fc fusion)
chain: B1 chain with D58R
B9: chimera A-E57R-Fc (Eg1S YTE) (Fc fusion)
chain: B1 chain with K57R, D58R, A192L, A193L, A195G, M210Y, S212T, T214E, A392N
B10: chimera A-E57V-Fc (Eg1S LALAGANA) (Fc fusion)
chain: B1 chain with K57V, D58R
B11: chimera A-E57K_R58D-Fc (Eg1S YTE) (Fc fusion)
chain: B1 chain with A192L, A193L, A195G, M210Y, S212T, T214E, A392N
notes: also called 45-10-Fc (Eg1S YTE)
B12: chimera A-E57K_R58E-Fc (Eg1S YTE) (Fc fusion)
chain: B1 chain with D58E, A192L, A193L, A195G, M210Y, S212T, T214E, A392N
notes: also called 45-18-Fc (Eg1S YTE)

One test deals with T5, membrane-bound human LIGHT (human, UniProt O43557 1-240).
T5 construct: whole, on cells; also called LIGHT/HEK293
T5 sequence (O43557 whole entry): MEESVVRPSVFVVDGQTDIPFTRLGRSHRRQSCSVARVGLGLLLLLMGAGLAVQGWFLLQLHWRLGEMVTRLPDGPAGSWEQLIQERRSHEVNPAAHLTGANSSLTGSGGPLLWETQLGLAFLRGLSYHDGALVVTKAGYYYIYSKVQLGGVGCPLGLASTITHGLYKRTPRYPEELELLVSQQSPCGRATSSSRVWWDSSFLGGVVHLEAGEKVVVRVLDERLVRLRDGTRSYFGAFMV
Put plainly: flow cytometry on expressing cells. In a few lines:
(§1)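 Binding was measured by flow cytometry on HEK293 cells forced to express membrane-bound LIGHT and on cell lines expressing N-terminally Met/FLAG-tagged TL1A or FasL from a CMV-promoter pClpuro vector. Cells at 1×10⁵ cells/well received 1 or 10 μg/mL protein on ice for 1 hour. After washing, cells were stained on ice for 1 hour with LIVE/DEAD Fixable Aqua and R-phycoerythrin goat F(ab′)₂ anti-human IgG (10 ng/mL, 0.1 or 1 μg/mL). Fluorescence was read on a FACS Fortessa.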
A general note: Flow cytometry measures light scatter and fluorescence of single cells or particles in a stream.
Take B1: the binding result was “binds”.
Still for that read-out and setting: then B2, with “binds”.
Same read-out and setting: to B3 belongs “binds”.
The same measure, in the same setting: then B4, with “binds”.
Take B5: the binding result was “binds”.
On the same count and under the same terms, to B6 belongs “binds”; to B7, “binds”; to B8, “binds”.
Still for that read-out and setting: to B9 belongs “binds”.
Still for that read-out and setting: then B10, with “binds”.
On to B11, for which the binding result is listed as “binds”.
On the same count and under the same terms, then B12, with “binds”.

In another test the target is T1, membrane-bound human TL1A (Met and FLAG …). Put plainly: flow cytometry on expressing cells. Summed up: as §1
On to B1, for which the binding result is “binds”.
With B2, the binding result is on record as “binds”.
On the same count and under the same terms, to B3 belongs “binds”; to B4, “binds”; to B5, “binds”.
Turning to B6, the binding result is on record as “binds”.
Still for that read-out and setting: to B7 belongs “binds”; to B8, “binds”; to B9, “binds”.
Same read-out and setting: then B10, with “binds”; and B11, with “binds”; and B12, with “binds”.

In a further test the target is T2, soluble recombinant of human TL1A …. Put plainly: SPR, binder captured on Protein A chip. On the procedure:
(§2) The binding activity to human and cynomolgus monkey DcR3 ligand trimers were analyzed by the SPR method. BIAcore T-100 (GE Healthcare) was used for measurement of the binding activities to human LIGHT, cynomolgus monkey LIGHT, human TL1A and cynomolgus monkey TL1A, and BIAcore T-200 (GE Healthcare) was used for measurement of the binding activities to human FasL and cynomolgus monkey FasL. As the buffer, HBS-EP+Buffer was used.
(§3) Various DcR3 variants were injected into Series S Sensor Chip Protein A (GE Healthcare) at 10 μL/min for 30 seconds and captured. Meanwhile, the buffer containing no protein was injected into a reference flow cell. Thereafter, as an analyte, each human DcR3 ligand trimer or each cynomolgus monkey DcR3 ligand trimer diluted to 0.08 to 20 nmol/L was injected. A human LIGHT trimer, a human TL1A trimer or each cynomolgus monkey DcR3 ligand trimer was injected at the flow rate of 30 μL/min for 2 minutes to monitor the binding, and subsequently the buffer was injected for 5 minutes to monitor dissociation. A human FasL trimer was injected at 30 μL/min for 1 minute to monitor the binding, and subsequently the buffer was injected for 3 minutes to monitor dissociation. Then, 3 mol/L magnesium chloride was injected at 30 μL/min for 1 minute to perform a regeneration reaction.
(Surface plasmon resonance follows binding to a sensor surface in real time, without labels.)
Regarding B1, the binding result is “binds”.
The same measure, in the same setting: then B2, with “binds”; and B3, with “binds”; and B4, with “binds”.
As to B5, the binding result is “binds”.
In the case of B6, the binding result is given as “binds”.
Still for that read-out and setting: to B7 belongs “binds”.
On to B8, for which the binding result is reported as “binds”.
Still for that read-out and setting: then B9, with “binds”.
Same read-out and setting: then B10, with “binds”; and B11, with “binds”.
Same read-out and setting: then B12, with “binds”.

For another test, the target named is T3, soluble recombinant of cynomolgus …. Put plainly: SPR, binder captured on Protein A chip. On the procedure: as §2, §3
For B1, the binding result was “binds”.
For the molecule B2, the binding result is “binds”.
On the same count and under the same terms, then B3, with “binds”; and B4, with “binds”.
Still for that read-out and setting: then B5, with “binds”.
The same measure, in the same setting: then B6, with “binds”; and B7, with “binds”; and B8, with “binds”.
Take B9: the binding result is “binds”.
The same measure, in the same setting: then B10, with “binds”.
On the same count and under the same terms, then B11, with “binds”; and B12, with “binds”.

The target in another test is T4, soluble recombinant of cynomolgus …. Description: SPR, binder captured on Protein A chip. On the procedure: as §2, §3
On to B1, for which the binding result is “binds”.
The same measure, in the same setting: to B2 belongs “binds”; to B3, “binds”.
The same measure, in the same setting: to B4 belongs “binds”; to B5, “binds”.
As to B6, the binding result is “binds”.
Still for that read-out and setting: then B7, with “binds”; and B8, with “binds”; and B9, with “binds”.
Still for that read-out and setting: to B10 belongs “binds”; to B11, “binds”; to B12, “binds”.
